“Also recorded” adds a separate entry of the source.
What was measured:
HEYA8 cells = test: Proliferation assay; format: cell-based, human; settings: HEYA8, acute mimic transfection
Protocol: (§1) Established ovarian cancer cell lines were obtained from the ATCC (OVCAR8, OVCAR5) and the University of Texas M.D. Anderson Cancer Center (HEYA8, SKOV3ip1). All cell lines were maintained at 37° C. in RPMI 1640 media (Invitrogen, Carlsbad, Calif.) supplemented with 10% fetal bovine serums (Hyclone, Logan, Utah) and 1% penicillin/streptomycin (Gibco, Carlsbad, Calif.). MicroRNA mimics and mimic controls (Dharmacon, Lafayette, Colo.) were transiently transfected into actively growing cultures using Lipofectamine 2000 (Invitrogen, Carlsbad, Calif.). After a 24-hour incubation, transfected cultures were washed, passaged and seeded into 96 well plates. Proliferation and apoptosis were measured at 72, 96 and 120 hours after transfection using standard assays (Cell Titer 96 Aqueous One; Caspase Glo 3/7; Promega, Madison, Wis.). pLemiR expression vectors (Open Biosystems/Thermo, Huntsville, Ala.) were prepared according to manufacturer's instructions and transfected into cells using Fugene 6 (Roche, Indianapolis, Ind.). Following transfection, stable clones were selected using puromycin (Invitrogen) at doses optimized for each line. Rates of proliferation and apoptosis were examined in stable transfectants 24, 48, 72 and 96 hours after selected cells had been passaged and dispensed into 96 well plates. Viability was assessed across a clinically relevant range of cisplatin concentrations using an MTS assay (Promega). Cisplatin was obtained from Teva Pharmaceuticals (Irvine, Calif.).

OVCAR5 = test: Proliferation assay; format: cell-based, human; settings: OVCAR5, mimic transfection
Protocol: as §1

HEY cells = test: Proliferation assay; format: cell-based, human; settings: mimic transfection
Protocol: as §1

OVCAR8 cells [1] = test: Spheroid formation; format: cell-based, human; settings: cells stably expressing mimics
[2] = test system: ovarian cancer cell lines; test: Cisplatin IC50 in multiple ovarian cancer cell lines; format: cell-based, human; settings: OVCAR8 and SKOV3ip1 cells, p<0.001
Protocol: as §1, with “Rates of proliferation and apoptosis were examined in stable transfectants 24, 48, 72 and 96 hours after selected cells had been passaged and dispensed into 96 well plates.” left out, “Cisplatin was obtained from Teva Pharmaceuticals (Irvine, Calif.).” left out

CDC25c [3] = test: Western blot of CDC25c in OVCAR8 cells; format: cell-based, human; settings: OVCAR8, particularly when exposed to cisplatin; listed as miR-520g/h
Protocol: (§2) Whole cell lysates equivalent to 30 μg of protein were resolved on 4-12% gradient SDS-PAGE. Resolved proteins were transferred onto PVDF membranes using the iBlot system (Invitrogen). Rabbit polyclonal and/or mouse monoclonal antibodies specifically recognizing ATM, phospo-ATM (Ser1981) CHK1 phospho-CHK1 (Ser216), p21, phospo-CHK2 ([…]), BCL2, XIAP, CDC25A were obtained from Cell Signaling Technologies (Danvers, Mass.). A rabbit polyclonal antibody recognizing FANCD2 was also purchased from Abcam (Cambridge, Mass.). Protein expression was visualized using species-specific, horseradish peroxidase-conjugated secondary antibody (Cell Signaling) and ECL Plus chemiluminescent substrate (Amersham, Buckinghamshire, UK).

SVOK3ip1 cells = test: Spheroid formation; format: cell-based, human; settings: cells stably expressing mimics
OVCAR8 xenografts = test: Subcutaneous ovarian cancer xenograft; format: in vivo, mice; settings: subcutaneous inoculation vs non-targeting control or empty vector
ATM = test: Western blot of ATM in OVCAR8 cells; format: cell-based, human; settings: for ATM degradation / cleavage product (ΔATM): OVCAR8, increasing concentrations of cisplatin; for ATM protein expression: OVCAR8 stably expressing the microRNA vs non-silencing control or empty vector
Protocol: as §2

OVCAR8 cells [4] = test: Viability (MTS) across cisplatin concentrations, stable microRNA clones; format: cell-based, human; settings: OVCAR8 stable clones vs non-silencing mimic, cisplatin <5 μg/mL
Protocol: as §1
(§3) For this reason, the inventors created clones of OVCAR8 and SKOV3ip1 ovarian cancer cell lines stably expressing either miR-520h (n=3) and miR-520a (n=3). […] To assess the impact of these microRNAs on cisplatin-induced cell killing, the inventors examined the viability of OVCAR8 and SKOV3ip1 cells stably expressing either microRNA incubated with clinically relevant concentrations of cisplatin. […] It should be noted that SKOV3ip1 cells tolerated only very low levels of miR-520a expression. The impact of cisplatin treatment on rates of apoptosis differed dramatically between the two cell lines.

SKOV3ip1 cells = test: as above; format: cell-based, human; settings: SKOV3ip1 stable clones vs non-silencing mimic
Protocol: as §1, §3

lin28A/B = test: Stemness gene expression in media that induce spheroid formation; format: cell-based, human; settings: OVCAR8 and SKOV3ip1
CASP7 = test: qPCR gene response to cisplatin in OVCAR8 cells; format: cell-based, human; settings: OVCAR8 stable clones vs non-silencing control
Protocol: (§4) Total RNA was extracted from cell pellets using the mirVana miRNA extraction kit (Ambion, Austin, Tex.) according to the manufacturer's instructions. Levels of microRNA expression were examined using Mature MicroRNA Taqman assays (Applied Biosystems, Foster City, Calif.) using U6 as a control. For all gene expression assays, cDNA was prepared using qScript cDNA supermix (Quanta Biosciences, Gaithersburg, Md.). TaqMan gene expression assays (Applied Biosystems) were used to measure expression of specific target genes according to the manufacturer's instructions. All reactions were performed in triplicate using OneStepPlus real time PCR system (Applied Biosystems). All qPCR results are reported using the ΔΔCT method (17).

CHK1 = test: qPCR gene response to cisplatin in OVCAR8 cells; format: cell-based, human; settings: OVCAR8 stable clones vs non-silencing control
Protocol: as §4

BRCA1 = test: qPCR gene response to cisplatin in OVCAR8 cells; format: cell-based, human; settings: OVCAR8 stable clones vs non-silencing control
Protocol: as §4

CHK2 = test: qPCR gene response to cisplatin in OVCAR8 cells; format: cell-based, human; settings: OVCAR8 stable clones vs non-silencing control
Protocol: as §4

CDC25c [5] = test: qPCR gene response to cisplatin in OVCAR8 cells; format: cell-based, human; settings: OVCAR8 stable clones vs non-silencing control
Protocol: as §4

B1: hsa-mir-520h MI0003175 (nucleic acid, listed as Homo sapiens)
chain: UCCCAUGCUGUGACCCUCUAGAGGAAGCACUUUCUGUUUGUUGUCUGAGAAAAAACAAAGUGCUUCCCUUUAGAGUUACUGUUUGGGA
modifications: expressed or natural sequence
notes: synthetic mimic or stably expressed from pLemiR vector; written miR-520g/h interchangeably
In the case of B1, the Proliferation (HEYA8 cells) is reported as “no significant impact”, the Proliferation (OVCAR5) is reported as “no impact” and the Proliferation (HEY cells) is reported as “no impact”. For the same molecule, the “Capacity to form spheroids” value (OVCAR8 cells [1]) was “decreased capacity to form spheroids”, the “Reduction of IC50 for cisplatin” value [2] was no more than 4 fold and the “CDC25c and phospho-CDC25c protein level” value (CDC25c [3]) was “much lower; also recorded: decreased levels”. The “Capacity to form spheroids” value (SVOK3ip1 cells) was “decreased capacity to form spheroids”, the “Implant size total tumor burden” value (OVCAR8 xenografts) was “significantly smaller” and the “ATM degradation / cleavage product (ΔATM)” value (ATM) was “induced both the phosphorylation and degradation”. The “ATM degradation / cleavage product (ΔATM)” value (ATM; listed as MiR-520h) was “promotes a proteolytic degradation”, the “ATM degradation / cleavage product (ΔATM)” value (ATM; listed as miR-520g/h) was “increased levels” and the “Phosphorylated ATM level” value (ATM; OVCAR8 stably expressing the microRNA) was “decreased levels”. For the same molecule, the ATM protein expression (ATM) was “decreased levels”, the ATM protein expression (ATM; listed as Mir-520g/h) was “markedly reduced” and the ATM protein expression (ATM; listed as miR-520g/h) was “significantly less”. The “Sensitization to cisplatin (viability)” value (OVCAR8 cells [4]) was “significantly sensitized”, the “Sensitization to cisplatin (viability)” value (OVCAR8 cells [4]; listed as miR-520g/h) was “sensitized” and the “Sensitization to cisplatin (viability)” value (SKOV3ip1 cells) was “significantly sensitized”. For the same molecule, the “Sensitization to cisplatin (viability)” value (SKOV3ip1 cells; listed as miR-520g/h) was “appeared to sensitize”, the “Spheroid-media-induced expression of stemness genes (lin28A/B)” value (lin28A/B) was “eliminates increased expression” and the “Caspase 7 expression response to cisplatin” value (CASP7) was “targeted; also recorded: blunts the responses”. The “Caspase 7 expression response to cisplatin” value (CASP7; listed as miR-520g/h) was “significantly less”, the “CHK1 expression response to cisplatin” value (CHK1) was “inhibited; also recorded: blunts the responses” and the “BRCA1 expression response to cisplatin” value (BRCA1) was “blunts the responses”. The “BRCA1 expression response to cisplatin” value (BRCA1; listed as miR-520g/h) was “significantly less”, the “CHK2 expression response to cisplatin” value (CHK2) was “blunts the responses” and the “CDC25C expression response to cisplatin” value (CDC25c [5]) was “blunts the responses”.
